Test results published in article doi:10.1101/2022.07.21.501072 (bioRxiv, 2022).
Substitutions are numbered along the chain they refer to. Names and notes keep the numbering of the source.

B1: IcsA passenger C375S (secreted) (domain or fragment, Shigella flexneri, UniProt Q7BCK4 53-758, looked up)
chain: TPLSGTQELHFSEDNYEKLLTPVDGLSPLGAGEDGMDAWYITSSNPSHASRTKLRINSDIMISAGHGGAGDNNDGNSCGGNGGDSITGSDLSIINQGMILGGSGGSGADHNGDGGEAVTGDNLFIINGEIISGGHGGDSYSDSDGGNGGDAVTGVNLPIINKGTISGGNGGNNYGEGDGGNGGDAITGSSLSVINKGTFAGGNGGAAYGYGYDGYGGNAITGDNLSVINNGAILGGNGGHWGDAINGSNMTIANSGYIISGKEDDGTQNVAGNAIHITGGNNSLILHEGSVITGDVQVNNSSILKIINNDYTGTTPTIEGDLSAGDCTTVSLSGNKFTVSGDVSFGENSSLNLAGISSLEASGNMSFGNNVKVEAIINNWAQKDYKLLSADKGITGFSVSNISIINPLLTTGAIDYTKSYISDQNKLIYGLSWNDTDGDSHGEFNLKENAELTVSTILADNLSHHNINSWDGKSLTKSGEGTLILAEKNTYSGFTNINAGILKMGTVEAMTRTAGVIVNKGATLNFSGMNQTVNTLLNSGTVLINNINAPFLPDPVIVTGNMTLEKNGHVILNNSSSNVGQTYVQKGNWHGKGGILSLGAVLGNDNSKTDRLEIAGHASGITYVAVTNEGGSGDKTLEGVQIISTDSSDKNAFIQKGRIVAGSYDYRLKQGTVSGLNTNKWYLTSQMDNQESKQMSNQESTQMSSR
B2: IcsA passenger C375S/C379S double mutant (secreted) (domain or fragment, Shigella flexneri, UniProt Q7BCK4 53-758, looked up)
chain: B1 chain with C327S
B3: IcsA passenger C379S (secreted) (domain or fragment, Shigella flexneri, UniProt Q7BCK4 53-758, looked up)
chain: B1 chain with S323C, C327S

Biological target: the molecule itself
Assay: semi-denaturing SDS-PAGE

Protein | stoichiometry N
B1 | 2
B2 | 2
B3 | 2
